Variants at the floor of the assay were thinned out.
Columns and labels:
biotinyl-Phe-oxazolone = assay: self-aminoacylation, catalytic enhancement (BFO) (fold over background); higher = more active; k-Seq, kA / k0A0; sequences stand for … in GGGAAUGGAUCCACAUCUACGAAUUC…UUCACUGCAGACUUGACGAAGCUG
Method in brief: (§1)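 Mutagenized RNA pools with a 21-nt variable region (0.43 μM) were reacted with each biotinyl-aminoacyl-oxazolone at 2–1250 μM for 90 minutes at room temperature, in 50 μL HEPES/NaCl/KCl/MgCl2/CaCl2 buffer containing 5% acetonitrile at pH 6.9–7.0. RNA captured on streptavidin was quantified by triplicate qPCR and by Illumina sequencing. The fraction reacted for each sequence was fit to a pseudo-first-order model with bootstrapping, and catalytic enhancement is the median kA divided by the uncatalyzed rate, taken as the low-activity peak of a bimodal Gaussian fit.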

biotinyl-Leu-oxazolone = assay: self-aminoacylation, catalytic enhancement (BLO) (fold over background); higher = more active; k-Seq, kA / k0A0; sequences stand for … in GGGAAUGGAUCCACAUCUACGAAUUC…UUCACUGCAGACUUGACGAAGCUG
Method in brief: as §1

biotinyl-Trp-oxazolone = assay: self-aminoacylation, catalytic enhancement (BWO) (fold over background); higher = more active; k-Seq, kA / k0A0; sequences stand for … in GGGAAUGGAUCCACAUCUACGAAUUC…UUCACUGCAGACUUGACGAAGCUG
Method in brief: as §1

biotinyl-Ile-oxazolone = assay: self-aminoacylation, catalytic enhancement (BIO) (fold over background); higher = more active; k-Seq, kA / k0A0; sequences stand for … in GGGAAUGGAUCCACAUCUACGAAUUC…UUCACUGCAGACUUGACGAAGCUG
Method in brief: as §1

biotinyl-Met-oxazolone = assay: self-aminoacylation, catalytic enhancement (BMO) (fold over background); higher = more active; k-Seq, kA / k0A0; sequences stand for … in GGGAAUGGAUCCACAUCUACGAAUUC…UUCACUGCAGACUUGACGAAGCUG
Method in brief: as §1

biotinyl-Val-oxazolone = assay: self-aminoacylation, catalytic enhancement (BVO) (fold over background); higher = more active; k-Seq, kA / k0A0; sequences stand for … in GGGAAUGGAUCCACAUCUACGAAUUC…UUCACUGCAGACUUGACGAAGCUG
Method in brief: as §1

Sequence	self-aminoacylation (biotinyl-Phe-oxazolone)	self-aminoacylation (biotinyl-Leu-oxazolone)	self-aminoacylation (biotinyl-Trp-oxazolone)	self-aminoacylation (biotinyl-Ile-oxazolone)	self-aminoacylation (biotinyl-Met-oxazolone)	self-aminoacylation (biotinyl-Val-oxazolone)
GUUCACCCAGGUCAUCGGGUG [Fam2.2 aminoacylation ribozyme variant]	29.1	5.02	3.77	3.12	3.77	3.64
GUUCACCUAGCUCAUCGGGUG [Fam2.2 aminoacylation ribozyme variant]	1.08	2.06	2.86	1.55	1.64	1.91
GUUCACCUAGGCCAUCGGGUG [Fam2.2 aminoacylation ribozyme variant]	25.4	3.61	3.64	3.17	3.77	3.86
GUUCACCUAGGUCAUCGGAUG [Fam2.2 aminoacylation ribozyme variant]	0.879	0.728	0.5	0.815	0.701	0.979
GUUCACCUAGGUCAUCGGGUA [Fam2.2 aminoacylation ribozyme variant]	381	68.3	33.1	24.6	50.6	22.6
GUUCACCUAGGUCAUUGGGUG [Fam2.2 aminoacylation ribozyme variant]	8.92	2.83	3.8	2.6	2.21	2.27
GUUCACCUAGGUCCUCGGGUG [Fam2.2 aminoacylation ribozyme variant]	25.5	4.67	5.27	3.49	4.16	4.16
GUUCAUCUAGGUCAUCGGGUG [Fam2.2 aminoacylation ribozyme variant]	35.3	7.61	7.23	4.19	5.79	3.72
GUUUCCCUGGUCAUCGAGUGA [Fam2.1 aminoacylation ribozyme variant]	48.7	14.8	16.2	6.97	14.6	7.85
UAGCUUGCUAAUAGUCGCAAG [Fam3.1 aminoacylation ribozyme variant]	3.65	1.8	1.84	2.34	1.88	2.22
UAGGUUGCUAAUAGUCGCAAG [Fam3.1 aminoacylation ribozyme variant]	1.91	1.15	2.01	1.4	1.2	1.2
UAGUAUGCUAAUAGUCGCAAG [Fam3.1 aminoacylation ribozyme variant]	2	1.57	1.68	1.62	1.28	1.13
UAGUUUGCUAAAAGUCGCAAG [Fam3.1 aminoacylation ribozyme variant]	3.92	1.57	3.43	1.53	1.93	1.6
UAGUUUGCUAAUAGUCGCUAG [Fam3.1 aminoacylation ribozyme variant]	1.68	1.13	1.08	1.18	1.01	1.13
UAGUUUGCUGAUAGUCGCAAG [Fam3.1 aminoacylation ribozyme variant]	2.35	1.08	1.61	1.61	0.993	1.47
UAGUUUGGUAAUAGUCGCAAG [Fam3.1 aminoacylation ribozyme variant]	2.29	1.81	1.96	1.73	1.74	1.57
UAGUUUUCUAAUAGUCGCAAG [Fam3.1 aminoacylation ribozyme variant]	1.6	1.3	1.59	1.52	1.25	1.23
UCACACUUCAAGCAACCGGUC [Fam1B.1 aminoacylation ribozyme variant]	1.26	0.739	0.796	0.984	0.801	1.05
UCACACUUCAAGCAAGCGGUC [Fam1B.1 aminoacylation ribozyme variant]	0.807	0.991	0.746	0.965	1.02	1.06
UCACACUUCAAGCAAUCAGUC [Fam1B.1 aminoacylation ribozyme variant]	17.9	0.817	5.72	0.777	0.645	0.932
UCACACUUCAAGCCAUCGGUC [Fam1B.1 aminoacylation ribozyme variant]	0.948	1.1	0.854	1.01	1.08	1.24
UCACACUUCAUGCAAUCGGUC [Fam1B.1 aminoacylation ribozyme variant]	0.632	0.736	0.656	0.85	0.793	0.887
UCACACUUCGAGCAAUCGGUC [Fam1B.1 aminoacylation ribozyme variant]	1.23	0.931	1.12	0.91	0.953	1.05
UGUCACCUAGGUCAUCGGGUG [Fam2.2 aminoacylation ribozyme variant]	23.9	3.64	5.31	3.84	4.27	3.6
UUACAUCAAACAAUCGGUCUG [Fam1A.1 aminoacylation ribozyme variant]	3.42	1.17	2.51	1.12	1.19	1.17
UUACCUCAAACAAUCGGUCUG [Fam1A.1 aminoacylation ribozyme variant]	3.03	0.861	2.66	0.975	0.97	1.01

Source: the supplement of paper PMC9233669
